Experimental data: patent US20050064507

Experiments:
[1] = target: T1, ADD2 peptide KKKFRTPSFLKKSKK (SEQ ID NO:95) (not fully specified)
T1 chain: KKKFRTPSFLKKSKK

[2] = target: T2, CACNA1C peptide RGFLRSASLGRRASFHLE (SEQ ID NO:96) (not fully specified)
T2 chain: RGFLRSASLGRRASFHLE

[3] = target: T3, CHRM1 peptide RKIPKRPGSVHRTPSRQ (SEQ ID NO:83) (not fully specified)
T3 chain: RKIPKRPGSVHRTPSRQ

[4] = target: T4, EBNA1BP2 peptide KRPGKKGSNKRPGKR (SEQ ID NO:112) (not fully specified)
T4 chain: KRPGKKGSNKRPGKR

[5] = target: T5, FLJ20574 peptide GENVLKKSMKSRVKG (SEQ ID NO:113) (not fully specified)
T5 chain: GENVLKKSMKSRVKG

[6] = target: T6, LIMK-2 peptide LRRRSLRRSNSISKSPGP (SEQ ID NO:121) (not fully specified)
T6 chain: LRRRSLRRSNSISKSPGP

[7] = target: T7, LIMK2 peptide KATTKKRTLRKNDRK (SEQ ID NO:108) (not fully specified)
T7 chain: KATTKKRTLRKNDRK

[8] = target: T8, MARCKS peptide KKKKKRFSFKKSFKL (SEQ ID NO:80) (not fully specified)
T8 chain: KKKKKRFSFKKSFKL

[9] = target: T9, MLK3 peptide HVRRRRGTFKRSKLRARD (SEQ ID NO:76) (not fully specified)
T9 chain: HVRRRRGTFKRSKLRARD

[10] = target: T10, MLK3 peptide QQVDRERPHVRRRRGTFKRS (SEQ ID NO:128) (not fully specified)
T10 chain: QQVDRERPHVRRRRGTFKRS

[11] = target: T11, MYBPC3 peptide LLKKRDSFRTPRDSKLE (SEQ ID NO:103) (not fully specified)
T11 chain: LLKKRDSFRTPRDSKLE

[12] = target: T12, MacMARCKS peptide KKKFSFKKPFKLSGLSFKRN (SEQ ID NO:162) (not fully specified)
T12 chain: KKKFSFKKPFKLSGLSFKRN

[13] = target: T13, NCF1 peptide GAPPRRSSIRNAH (SEQ ID NO:101) (not fully specified)
T13 chain: GAPPRRSSIRNAH

[14] = target: T14, NEURL peptide ALRRPSLRREADD (SEQ ID NO:105) (not fully specified)
T14 chain: ALRRPSLRREADD

[15] = target: T15, NR4A3 peptide KEVVRTDSLKGRRGR (SEQ ID NO:109) (not fully specified)
T15 chain: KEVVRTDSLKGRRGR

[16] = target: T16, PARIS1 peptide EYLERRASRRRAV (SEQ ID NO:130) (not fully specified)
T16 chain: EYLERRASRRRAV

[17] = target: T17, PARIS1 peptide EYLERRASRRRAV (SEQ ID NO:138) (not fully specified)
T17 chain: EYLERRASRRRAV

[18] = target: T18, PKD1 peptide RVVQSVKHTKRKSSTVMK (SEQ ID NO:149) (not fully specified)
T18 chain: RVVQSVKHTKRKSSTVMK

[19] = target: T19, PLEK peptide KFARKSTRRSIRLPE (SEQ ID NO:78) (not fully specified)
T19 chain: KFARKSTRRSIRLPE

[20] = target: T20, SMARCA5 peptide MAQIERGEARIQRRISIKKA (SEQ ID NO:166) (not fully specified)
T20 chain: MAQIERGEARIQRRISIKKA

[21] = target: T21, SPTBN4 peptide EGGDRRASGRRK (SEQ ID NO:110) (not fully specified)
T21 chain: EGGDRRASGRRK

[22] = target: T22, cyclophilin G peptide TEEKSKKRKKKHRKNSRKHK (SEQ ID NO:165) (not fully specified)
T22 chain: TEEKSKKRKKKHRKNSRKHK

[23] = target: T23, cytohesin-2 peptide VDPFYEMLAARKKRISVKKK (SEQ ID NO:150) (not fully specified)
T23 chain: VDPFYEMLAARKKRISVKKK

[24] = target: T24, dag kinase iota peptide NRKKKRTSFKRKA (SEQ ID NO:117) (not fully specified)
T24 chain: NRKKKRTSFKRKA

[25] = target: T25, dag kinase zeta peptide KKKKRASFKRKSSKKG (SEQ ID NO:114) (not fully specified)
T25 chain: KKKKRASFKRKSSKKG

[26] = target: T26, fit1 peptide VQMTWSYPDEKNKRASVRRR (SEQ ID NO:158) (not fully specified)
T26 chain: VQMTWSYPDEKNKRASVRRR

[27] = target: T27, kinesin 3C peptide LEKRGMLGKRPRRKSSRRKK (SEQ ID NO:133) (not fully specified)
T27 chain: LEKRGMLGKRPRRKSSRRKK

[28] = target: T28, phospholemman peptide EEGTFRSSIRRLSTRRR (SEQ ID NO:116) (not fully specified)
T28 chain: EEGTFRSSIRRLSTRRR

[29] = target: T29, ribosomal protein S6 peptide AKRRRLSSLRASTSK (SEQ ID NO:120) (not fully specified)
T29 chain: AKRRRLSSLRASTSK

[30] = target: T30, slp4 peptide TYLLPDKSRQGKRKTSIKRD (SEQ ID NO:153) (not fully specified)
T30 chain: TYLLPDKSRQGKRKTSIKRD

[31] = target: T31, titin peptide PFEVVWYKDKRQLRSSKKYK (SEQ ID NO:160) (not fully specified)
T31 chain: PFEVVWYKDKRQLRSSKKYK

B1: PKC-theta (protein)
chain: MSPFLRIGLSNFDCGSCQSCQGEAVNPYCAVLVKEYVESENGQMYIQKKPTMYPPWDSTFDAHINKGRVMQIIVKGKNVDLISETTVELYSLAERCRKNNGKTEIWLELKPQGRMLMNARYFLEMSDTKDMNEFETEGFFALHQRRGAIKQAKVHHVKCHEFTATFFPQPTFCSVCHEFVWGLNKQGYQCRQCNAAIHKKCIDKVIAKCTGSAINSRETMFHKERFKIDMPHRFKVYNYKSPTFCEHCGTLLWGLARQGLKCDACGMNVHHRCQTKVANLCGINQKLMAEALAMIESTQQARCLRDTEQIFREGPVEIGLPCSIKNEARPPCLPTPGKREPQGISWESPLDEVDKMCHLPEPELNKERPSLQIKLKIEDFILHKMLGKGSFGKVFLAEFKKTNQFFAIKALKKDVVLMDDDVECTMVEKRVLSLAWEHPFLTHMFCTFQTKENLFFVMEYLNGGDLMYHIQSCHKFDLSRATFYAAEIILGLQFLHSKGIVYRDLKLDNILLDKDGHIKIADFGMCKENMLGDAKTNTFCGTPDYIAPEILLGQKYNHSVDWWSFGVLLYEMLIGQSPFHGQDEEELFHSIRMDNPFYPRWLEKEAKDLLVKLFVREPEKRLGVRGDIRQHPLFREINWEELERKEIDPPFRPKVKSPFDCSNFDKEFLNEKPRLSFADRALINSMDQNMFRNFSFMNPGMERLIS
[1]
  in vitro phosphorylation (% of best substrate): 42
[2]
  in vitro phosphorylation (% of best substrate): 21
[3]
  in vitro phosphorylation (% of best substrate): 92
[4]
  in vitro phosphorylation (% of best substrate): 17
[5]
  in vitro phosphorylation (% of best substrate): 10
[6]
  Peptide phosphorylation by PKC-theta: 57
  in vitro phosphorylation, 1 uM peptide (% of best substrate): 51
  in vitro phosphorylation, 10 uM peptide (% of best substrate): 57
[7]
  in vitro phosphorylation (% of best substrate): 32
[8]
  in vitro phosphorylation (% of best substrate): 63
[9]
  Peptide phosphorylation by PKC-theta: 99
  in vitro phosphorylation (% of best substrate): 100
[10]
  in vitro phosphorylation, 1 uM peptide (% of best substrate): 41
  in vitro phosphorylation, 10 uM peptide (% of best substrate): 59
[11]
  in vitro phosphorylation (% of best substrate): 24
[12]
  in vitro phosphorylation, 1 uM peptide (% of best substrate): 14
  in vitro phosphorylation, 10 uM peptide (% of best substrate): 13
[13]
  in vitro phosphorylation (% of best substrate): 29
[14]
  in vitro phosphorylation (% of best substrate): 21
[15]
  in vitro phosphorylation (% of best substrate): 9
[16]
  in vitro phosphorylation, 1 uM peptide (% of best substrate): 38
  in vitro phosphorylation, 10 uM peptide (% of best substrate): 44
[17]
  in vitro phosphorylation, 1 uM peptide (% of best substrate): 34
  in vitro phosphorylation, 10 uM peptide (% of best substrate): 39
[18]
  in vitro phosphorylation, 1 uM peptide (% of best substrate): 13
  in vitro phosphorylation, 10 uM peptide (% of best substrate): 14
[19]
  in vitro phosphorylation (% of best substrate): 47
[20]
  in vitro phosphorylation, 1 uM peptide (% of best substrate): 13
  in vitro phosphorylation, 10 uM peptide (% of best substrate): 13
[21]
  in vitro phosphorylation (% of best substrate): 22
[22]
  in vitro phosphorylation, 1 uM peptide (% of best substrate): 16
  in vitro phosphorylation, 10 uM peptide (% of best substrate): 14
[23]
  in vitro phosphorylation, 1 uM peptide (% of best substrate): 35
  in vitro phosphorylation, 10 uM peptide (% of best substrate): 35
[24]
  in vitro phosphorylation, 1 uM peptide (% of best substrate): 84
  in vitro phosphorylation, 10 uM peptide (% of best substrate): 78
[25]
  in vitro phosphorylation, 1 uM peptide (% of best substrate): 100
  in vitro phosphorylation, 10 uM peptide (% of best substrate): 86
[26]
  in vitro phosphorylation, 1 uM peptide (% of best substrate): 19
  in vitro phosphorylation, 10 uM peptide (% of best substrate): 23
[27]
  in vitro phosphorylation, 1 uM peptide (% of best substrate): 46
  in vitro phosphorylation, 10 uM peptide (% of best substrate): 53
[28]
  in vitro phosphorylation, 1 uM peptide (% of best substrate): 83
  in vitro phosphorylation, 10 uM peptide (% of best substrate): 78
[29]
  in vitro phosphorylation, 1 uM peptide (% of best substrate): 51
  in vitro phosphorylation, 10 uM peptide (% of best substrate): 51
[30]
  in vitro phosphorylation, 1 uM peptide (% of best substrate): 22
  in vitro phosphorylation, 10 uM peptide (% of best substrate): 18
[31]
  in vitro phosphorylation, 1 uM peptide (% of best substrate): 19
  in vitro phosphorylation, 10 uM peptide (% of best substrate): 25
